Where a chain is given by its changes, count along the chain named.
B1: J3: Anti-cKIT Fab′3 conjugated to Compound (1), DAR 4 (Fab, V domains shown)
VH: QVQLVQSGAEVKKPGSSVKVSCKASGGTFSSYAISWVRQAPGQGLEWMGTIGPFEGQPRYAQKFQGRVTITADESTSTAYMELSSLRSEDTAVYYCARGGYISDFDVWGQGTLVTVSS
VL: DIQMTQSPSSLSASVGDRVTITCRASQSISNYLAWYQQKPGKAPKLLIYDASSLQSGVPSRFSGSGSGTDFTLTISSLQPEDFATYYCQQYYYESITFGQGTKVEIKR
modifications: Compound (1) on native cysteine LC-214C (EU); Compound (1) on native cysteines HC-220C-226C-229C (EU)
B2: J22: Anti-cKIT Fab′3 conjugated to Compound (2), DAR 4 (Fab, V domains shown)
VH: B1 VH
VL: B1 VL
modifications: Compound (2) on native cysteine LC-214C (EU); Compound (2) on native cysteines HC-220C-226C-229C (EU)
B3: J20: Anti-cKIT Fab′3 conjugated to mc-MMAF, DAR 4 (Fab, V domains shown)
VH: B1 VH
VL: B1 VL
modifications: mc-MMAF on native cysteine LC-214C (EU); mc-MMAF on native cysteines HC-220C-226C-229C (EU)
B4: J2: Anti-cKIT Fab′2 conjugated to Compound (1), DAR 4 (Fab, V domains shown)
VH: QVQLVQSGAEVKKPGSSVKVSCKASGGTFSSHALSWVRQAPGQGLEWMGGIIPSFGTADYAQKFQGRVTITADESTSTAYMELSSLRSEDTAVYYCARGLYDFDYWGQGTLVTVSS
VL: B1 VL with S28D, N31Q, Y32D, T85V, E94L, S95P, I96S
modifications: Compound (1) on native cysteine LC-214C (EU); Compound (1) on native cysteines HC-220C-226C-229C (EU)
B5: J19: Anti-cKIT Fab′2 conjugated to Compound (2), DAR 4 (Fab, V domains shown)
VH: B4 VH
VL: B1 VL with S28D, N31Q, Y32D, T85V, E94L, S95P, I96S
modifications: Compound (2) on native cysteine LC-214C (EU); Compound (2) on native cysteines HC-220C-226C-229C (EU)
B6: J17: Anti-cKIT Fab′2 conjugated to mc-MMAF, DAR 4 (Fab, V domains shown)
VH: B4 VH
VL: B1 VL with S28D, N31Q, Y32D, T85V, E94L, S95P, I96S
modifications: mc-MMAF on native cysteine LC-214C (EU); mc-MMAF on native cysteines HC-220C-226C-229C (EU)
B7: J15: Anti-cKIT Fab′1 conjugated to Compound (5), DAR 4 (Fab, V domains shown)
VH: B1 VH with T50V, G52F, F54A, Q57A, R59G
VL: B1 VL
modifications: Compound (5) on native cysteine LC-214C (EU); Compound (5) on native cysteines HC-220C-226C-229C (EU)
B8: J18: Anti-cKIT Fab′2 conjugated to Compound (5), DAR 4 (Fab, V domains shown)
VH: B4 VH
VL: B1 VL with S28D, N31Q, Y32D, T85V, E94L, S95P, I96S
modifications: Compound (5) on native cysteine LC-214C (EU); Compound (5) on native cysteines HC-220C-226C-229C (EU)
B9: J14: Anti-cKIT Fab′1 conjugated to mc-MMAF, DAR 4 (Fab, V domains shown)
VH: B1 VH with T50V, G52F, F54A, Q57A, R59G
VL: B1 VL
modifications: mc-MMAF on native cysteine LC-214C (EU); mc-MMAF on native cysteines HC-220C-226C-229C (EU)
B10: J16: Anti-cKIT Fab′1 conjugated to Compound (2), DAR 4 (Fab, V domains shown)
VH: B1 VH with T50V, G52F, F54A, Q57A, R59G
VL: B1 VL
modifications: Compound (2) on native cysteine LC-214C (EU); Compound (2) on native cysteines HC-220C-226C-229C (EU)
B11: J1: Anti-cKIT Fab′1 conjugated to Compound (1), DAR 4 (Fab, V domains shown)
VH: B1 VH with T50V, G52F, F54A, Q57A, R59G
VL: B1 VL
modifications: Compound (1) on native cysteine LC-214C (EU); Compound (1) on native cysteines HC-220C-226C-229C (EU)
B12: J21: Anti-cKIT Fab′3 conjugated to Compound (5), DAR 4 (Fab, V domains shown)
VH: B1 VH
VL: B1 VL
modifications: Compound (5) on native cysteine LC-214C (EU); Compound (5) on native cysteines HC-220C-226C-229C (EU)
B13: J5: Anti-cKIT Fab′5 conjugated to Compound (1), DAR 4 (Fab, V domains shown)
VH: QVQLVQSGAEVKKPGESLKISCKGSGYSFTNYWIAWVRQMPGKGLEWMGIIYPSNSYTLYSPSFQGQVTISADKSISTAYLQWSSLKASDTAMYYCARVPPGGSISYPAFDHWGQGTLVTVSS
VL: DIELTQPPSVSVSPGQTASITCSGDNIGSIYASWYQQKPGQAPVLVIYRDNKRPSGIPERFSGSNSGNTATLTISGTQAEDEADYYCSVTDMEQHSVFGGGTKLTVLG
modifications: Compound (1) on native cysteine LC-214C (EU); Compound (1) on native cysteines HC-220C-226C-229C (EU)
B14: J4: Anti-cKIT Fab′4 conjugated to Compound (1), DAR 4 (Fab, V domains shown)
VH: QVQLQQSGPGLVKPSQTLSLTCAISGDSVSTNSAAWNWIRQSPSRGLEWLGRIYYRSQWLNDYAVSVKSRITINPDTSKNQFSLQLNSVTPEDTAVYYCARQLTYPYTVYHKALDVWGQGTLVTVSS
VL: DIELTQPPSVSVSPGQTASITCSGDNLGDQYVSWYQQKPGQAPVLVIYDDTDRPSGIPERFSGSNSGNTATLTISGTQAEDEADYYCQSTDSKSVVFGGGTKLTVLG
modifications: Compound (1) on native cysteine LC-214C (EU); Compound (1) on native cysteines HC-220C-226C-229C (EU)

These binders were tested against Human cKIT on human mobilized peripheral blood hematopoietic stem cells (human, UniProt P10721 26-976) (assay: cell-based or functional assay).

Binder	EC50 (ng/ml), cell viability after 7 days, Human CD34+ cells [ng/mL]	EC50 (ng/ml), cell viability after 7 days, Human CD90+ cells [ng/mL]	EC50 (ng/ml), cell viability after 7 days, Human total nucleated cells [ng/mL]
B1	8	12	45
B2	10	17	8
B3	25	72	20
B4	11	16	58
B5	16	23	14
B6	16	37	12
B7	5	1	6
B8	11	3	15
B9	10	11	7
B10	7	9	6
B11	11	13	48
B12	88	22	154

What follows are binders tested against Mouse cKIT on C57BL/6J bone marrow cells (mouse, UniProt P05532 25-979) (assay: cell-based or functional assay).

Binder	EC50 (ng/ml), cell viability after 7 days, Mouse CD45+ cells [ng/mL]	EC50 (ng/ml), cell viability after 7 days, Mouse cKIT+ cells [ng/mL]	EC50 (ng/ml), cell viability after 7 days, Mouse total nucleated cells [ng/mL]
B13	210	120	210
B14	3800	8	3800

Reference: patent US20190321483A1 (Novartis, published 2019)
